# Assay results reported in patent US20080145903A1, “PROCESSES OF PRODUCING FERMENTATION PRODUCTS” (priority 2006, published 2008).
# Test system: RED STAR yeast
# Assay: Conventional simultaneous saccharification fermentation (SSF) of liquefied corn mash, ethanol yield by weight loss and HPLC
# Type: cell-based
# Conditions: conventional SSF, 70 hours
# Procedure: Liquefied corn mash was used to evaluate the effect of adding salicylic acid (SA) to a known enzyme dosage of
# The performance of these enzymes was compared to controls without salicylic acid addition. The experimental set-up used is described in table below.
# 5.5 g of RED STAR™ yeast was rehydrated in 100 mL distilled water and incubated at 32° C. for 30 minutes prior to the beginning of fermentation. Approximately 50 million cells/g DS of yeast were added to each of the fermentations.
# The corn mash was thawed to room temperature. Urea and Penicillin were added to a final concentration of […] and 3 mg/L respectively. Small-scale (˜4 g) fermentations were carried out in 15 mL polypropylene tubes with five replicates for each experimental condition. The tubes were prepared by drilling a 1/32 inch (1.5 mm) hole and the empty tubes were then weighed before liquefied corn mash was added. The tubes were weighed again after mash was added to determine the exact weight of mash in each tube. This weight was used to calculate the enzyme dosage necessary as follows:
# Enzyme was added according to dosage described in table above and 100 μl of rehydrated yeast were added to each tube to begin fermentation. Fermentation progress was followed by weighing the tubes over time for approximately 70 hours. Tubes were vortexed briefly before each weighing. […]
molecule,measurement,setting,value
"Aspergillus niger GA: Aspergillus niger G1 glucoamylase disclosed in Boel et al., 1984, EMBO J. 3 (5): 1097-1102 (protein, UniProt P69328 25-640, looked up) Glucoamylase: ATLDSWLSNEATVARTAILNNIGADGAWVSGADSGIVVASPSTDNPDYFYTWTRDSGLVLKTLVDLFRNGDTSLLSTIENYISAQAIVQGISNPSGDLSSGAGLGEPKFNVDETAYTGSWGRPQRDGPALRATAMIGFGQWLLDNGYTSTATDIVWPLVRNDLSYVAQYWNQTGYDLWEEVNGSSFFTIAVQHRALVEGSAFATAVGSSCSWCDSQAPEILCYLQSFWTGSFILANFDSSRSGKDANTLLGSIHTFDPEAACDDSTFQPCSPRALANHKEVVDSFRSIYTLNDGLSDSEAVAVGRYPEDTYYNGNPWFLCTLAAAEQLYDALYQWDKQGSLEVTDVSLDFFKALYSDAATGTYSSSSSTYSSIVDAVKTFADGFVSIVETHAASNGSMSEQYDKSDGEQLSARDLTWSYAALLTANNRRNSVVPASWGETSASSVPGTCAATSAIGTYSSVTVTSWPSIVATGGTTTTATPTGSGSVTSTSKTTATASKTSTSTSSTSCTTPTAVAVTFDLTATTTYGENIYLVGSISQLGDWETSDGIALSADKYTSSDPLWYVTVTLPAGESFEYKFIRIESDDSVEWESDPNREYTVPQACGTSTATVTDTWR","Ethanol yield after 70 hours fermentation determined by HPLC, With SA",SA dose 5.0 mM/gDS,117.67
same,"Ethanol yield after 70 hours fermentation determined by HPLC, without SA",no SA,113.74
